Assay results as given in the supplement of paper PMC10567573.

B1: RHOBTB1 (parent)
chain: TFGDHHKDRRFAYGRSDVVVLCFS
B2: ADAMTSL2 (parent)
chain: KKPPEESTCFERPCFKWYTSPWSE

Variants of: B1
Assay: protein stability index of a GFP-peptide fusion (GPS, HEK-293T) (PSI 1-6); higher = more stable
Settings: c terminus: a fixed tail appended
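Note: lentivirally expressed fusions sorted by FACS into six bins by GFP to DsRed ratio, PSI derived from sequencing read proportions per bin multiplied by bin number.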

Variant | protein stability index
TLGDHHKDRRFAYGRSDVVVLCFS [F2L] | 2.32
TAGDHHKDRRFAYGRSDVVVLCFS [F2A] | 1.63
TMGDHHKDRRFAYGRSDVVVLCFS [F2M] | 1.81
THGDHHKDRRFAYGRSDVVVLCFS [F2H] | 1.85
TCGDHHKDRRFAYGRSDVVVLCFS [F2C] | 3.44
TEGDHHKDRRFAYGRSDVVVLCFS [F2E] | 1.31
TWGDHHKDRRFAYGRSDVVVLCFS [F2W] | 2.28
TIGDHHKDRRFAYGRSDVVVLCFS [F2I] | 2.17
TSGDHHKDRRFAYGRSDVVVLCFS [F2S] | 1.02
TPGDHHKDRRFAYGRSDVVVLCFS [F2P] | 3.35
TNGDHHKDRRFAYGRSDVVVLCFS [F2N] | 2.23
TDGDHHKDRRFAYGRSDVVVLCFS [F2D] | 2.19
TKGDHHKDRRFAYGRSDVVVLCFS [F2K] | 2.65
TFGNHHKDRRFAYGRSDVVVLCFS [D4N] | 2.15
TFGPHHKDRRFAYGRSDVVVLCFS [D4P] | 2.46
TFGYHHKDRRFAYGRSDVVVLCFS [D4Y] | 3.19
TFGWHHKDRRFAYGRSDVVVLCFS [D4W] | 3.1
TFGEHHKDRRFAYGRSDVVVLCFS [D4E] | 3.4
TFGQHHKDRRFAYGRSDVVVLCFS [D4Q] | 3.51
TFGHHHKDRRFAYGRSDVVVLCFS [D4H] | 1.51

Variant | protein stability index
TFGTHHKDRRFAYGRSDVVVLCFS [D4T] | 2.54
TFGLHHKDRRFAYGRSDVVVLCFS [D4L] | 3.29
TFGKHHKDRRFAYGRSDVVVLCFS [D4K] | 2.06
VFGDHHKDRRFAYGRSDVVVLCFS [T1V] | 3.58
LFGDHHKDRRFAYGRSDVVVLCFS [T1L] | 2.59
QFGDHHKDRRFAYGRSDVVVLCFS [T1Q] | 2.25
FFGDHHKDRRFAYGRSDVVVLCFS [T1F] | 4.17
KFGDHHKDRRFAYGRSDVVVLCFS [T1K] | 2.48
EFGDHHKDRRFAYGRSDVVVLCFS [T1E] | 2.06
AFGDHHKDRRFAYGRSDVVVLCFS [T1A] | 2.71
PFGDHHKDRRFAYGRSDVVVLCFS [T1P] | 2.61
NFGDHHKDRRFAYGRSDVVVLCFS [T1N] | 1.89
TFGDHCKDRRFAYGRSDVVVLCFS [H6C] | 1.2
TFGDHFKDRRFAYGRSDVVVLCFS [H6F] | 2.33
TFGDHEKDRRFAYGRSDVVVLCFS [H6E] | 3
TFGDYHKDRRFAYGRSDVVVLCFS [H5Y] | 2.15
TFGDWHKDRRFAYGRSDVVVLCFS [H5W] | 3.81
TFGDDHKDRRFAYGRSDVVVLCFS [H5D] | 2.41
TFGDCHKDRRFAYGRSDVVVLCFS [H5C] | 2.27
TFGDFHKDRRFAYGRSDVVVLCFS [H5F] | 2.45

Variant | protein stability index
TFGDLHKDRRFAYGRSDVVVLCFS [H5L] | 2.09
TFGDAHKDRRFAYGRSDVVVLCFS [H5A] | 2.25
TFGDGHKDRRFAYGRSDVVVLCFS [H5G] | 1.21
TFGDQHKDRRFAYGRSDVVVLCFS [H5Q] | 2.74
TFGDPHKDRRFAYGRSDVVVLCFS [H5P] | 3.97
TFGDRHKDRRFAYGRSDVVVLCFS [H5R] | 2.59
TFDDHHKDRRFAYGRSDVVVLCFS [G3D] | 2.11
TFKDHHKDRRFAYGRSDVVVLCFS [G3K] | 1.74
TFADHHKDRRFAYGRSDVVVLCFS [G3A] | 1.83
TFRDHHKDRRFAYGRSDVVVLCFS [G3R] | 1.52
TFWDHHKDRRFAYGRSDVVVLCFS [G3W] | 2.33
TFPDHHKDRRFAYGRSDVVVLCFS [G3P] | 2.48
TFSDHHKDRRFAYGRSDVVVLCFS [G3S] | 2.45
TFNDHHKDRRFAYGRSDVVVLCFS [G3N] | 1.98
TFFDHHKDRRFAYGRSDVVVLCFS [G3F] | 1.39
TFVDHHKDRRFAYGRSDVVVLCFS [G3V] | 3.29
TFIDHHKDRRFAYGRSDVVVLCFS [G3I] | 2.42
TFEDHHKDRRFAYGRSDVVVLCFS [G3E] | 2.98

Variants of: B2
Assay: as above
Settings: c terminus: a fixed tail appended

Variant | protein stability index
KKPPEESTCFERPCFKWGTSPWSE [Y18G] | 2.99
KKPPEESTCFERPCFKWLTSPWSE [Y18L] | 2.45
KKPPEESTCFERPCFKWSTSPWSE [Y18S] | 3.18
KKPPEESTCFERPCFKWKTSPWSE [Y18K] | 3.04
KKPPEESTCFERPCFKWMTSPWSE [Y18M] | 2.38
KKPPEESTCFERPCFKWVTSPWSE [Y18V] | 2.22
KKPPEESTCFERPCFKWPTSPWSE [Y18P] | 3.02
KKPPEESTCFERPCFKWFTSPWSE [Y18F] | 1.86
KKPPEESTCFERPCFKWWTSPWSE [Y18W] | 2.57
KKPPEESTCFERPCFKWETSPWSE [Y18E] | 3.15
KKPPEESTCFERPCFKWRTSPWSE [Y18R] | 2.71
KKPPEESTCFERPCFKWNTSPWSE [Y18N] | 2.81
KKPPEESTCFERPCFKWTTSPWSE [Y18T] | 3
KKPPEESTCFERPCFKWHTSPWSE [Y18H] | 2.97
KKPPEESTCFERPCFKWQTSPWSE [Y18Q] | 2.58
KKPPEESTCFERPCFKWITSPWSE [Y18I] | 2.15
KKPPEESTCFERPCFKWYTSPSSE [W22S] | 3.61
KKPPEESTCFERPCFKWYTSPHSE [W22H] | 3.6

Variant | protein stability index
KKPPEESTCFERPCFKWYTSPFSE [W22F] | 2.98
KKPPEESTCFERPCFKWYTSPVSE [W22V] | 3.27
KKPPEESTCFERPCFKWYTSPISE [W22I] | 3.03
KKPPEESTCFERPCFKWYTSPKSE [W22K] | 3.6
KKPPEESTCFERPCFKWYTSPDSE [W22D] | 3.79
KKPPEESTCFERPCFKWYTSPESE [W22E] | 4.18
KKPPEESTCFERPCFKWYTSPGSE [W22G] | 3.51
KKPPEESTCFERPCFKWYTSPQSE [W22Q] | 3.82
KKPPEESTCFERPCFKWYTSPRSE [W22R] | 2.95
KKPPEESTCFERPCFKWYTSPASE [W22A] | 4.34
KKPPEESTCFERPCFKWYTSPYSE [W22Y] | 3.05
KKPPEESTCFERPCFKWYTSPMSE [W22M] | 2.6
KKPPEESTCFERPCFKWYTSPPSE [W22P] | 4
KKPPEESTCFERPCFKWYTSPLSE [W22L] | 3.07
KKPPEESTCFERPCFKWYTSPCSE [W22C] | 3.35
KKPPEESTCFERPCFKWYTSPNSE [W22N] | 3.28
KKPPEESTCFERPCFKWYTSPTSE [W22T] | 3.97
KKPPEESTCFERPCFKWYQSPWSE [T19Q] | 1.89
